Here are results for 2 substances from PMC10721955.

For the assay, the target named is Flag-tagged mouse MRTF-A (MAL fl), in vitro translated. The assay can be described thus: in vitro protein binding assay (IP/IB of in vitro translated tagged proteins), quantified. Conditions: IP: HA-gel (HA-CRP2), three independent experiments, parent: 100, read off a plot.

On to “HA-tagged human CRP2 (cysteine-and glycine-rich protein 2), in vitro translated (from UniProt Q16527) 153L/D; 158L/D”, for which the percent of parent came out at 22%.

Consider “HA-tagged human CRP2 (cysteine-and glycine-rich protein 2), in vitro translated (from UniProt Q16527) 154E/L; 156T/D; 157T/D”, for which the percent of parent was determined as 21%.
